Source: patent US20260022175A1 (Chugai, published 2026)

T1: human FcγRIIa H allotype extracellular domain with C-terminal His-tag (human, UniProt P12318 34-217)
T1 construct: extracellular domain; also called hFcγR IIa H
T1 sequence (looked up): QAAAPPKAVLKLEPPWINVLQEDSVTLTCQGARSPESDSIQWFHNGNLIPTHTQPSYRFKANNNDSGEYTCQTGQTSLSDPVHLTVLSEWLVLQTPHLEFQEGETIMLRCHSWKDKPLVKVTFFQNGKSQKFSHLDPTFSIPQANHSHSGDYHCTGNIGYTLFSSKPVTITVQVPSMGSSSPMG

T2: human FcγRIIa R allotype extracellular domain with C-terminal His-tag (human, UniProt P12318 34-217)
T2 construct: extracellular domain; also called hFcγR IIa R
T2 sequence (looked up): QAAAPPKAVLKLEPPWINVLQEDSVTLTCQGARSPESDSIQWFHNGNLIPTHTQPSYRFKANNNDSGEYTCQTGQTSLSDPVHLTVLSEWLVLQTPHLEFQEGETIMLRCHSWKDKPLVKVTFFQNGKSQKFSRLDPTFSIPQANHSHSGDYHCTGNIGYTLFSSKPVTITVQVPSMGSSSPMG

T3: human FcγRIIb extracellular domain with C-terminal His-tag (human, UniProt P31994 43-217)
T3 construct: extracellular domain; also called hFcγR IIb
T3 sequence (looked up): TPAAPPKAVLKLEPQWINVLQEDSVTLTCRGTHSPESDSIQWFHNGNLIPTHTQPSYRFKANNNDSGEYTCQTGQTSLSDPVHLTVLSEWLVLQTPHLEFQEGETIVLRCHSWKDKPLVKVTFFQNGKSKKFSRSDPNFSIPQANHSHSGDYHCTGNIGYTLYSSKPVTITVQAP


How the values were obtained:
[1] = biological target: T4, human FcγRIa extracellular domain with C-terminal His-tag (human, UniProt P12314 16-292); experiment: SPR; KD of 04H1389-G1m/04L1615-k0MT divided by KD of variant
T4 construct: extracellular domain; also called hFcγR Ia; hFcγRIa

[2] = biological target: T1, human FcγRIIa H allotype extracellular …; experiment: as above
human FcRn [3] = biological target: T5, human FcRn (human, UniProt P55899 24-290; P61769 21-119); experiment: as above
T5 construct: Prepared by the method of WO 2010/107110; also called hFcRn

[4] = biological target: T6, human FcγRIIIa V allotype extracellular domain with C-terminal His-tag (human, UniProt P08637 17-208); experiment: as above
T6 construct: extracellular domain; also called hFcγR IIIa V

[5] = biological target: T2, human FcγRIIa R allotype extracellular …; experiment: as above
[6] = biological target: T3, human FcγRIIb extracellular domain with …; experiment: SPR; binding amount divided by that of 04H1389-G1m/04L1615-k0MT
[7] = biological target: T3, human FcγRIIb extracellular domain with …; experiment: SPR; FcγRIIb bound amount per unit captured Ab
human FcRn [8] = biological target: T5, human FcRn; experiment: SPR Biacore T200, Ab captured via Fab-kappa, pH 6.0, steady state
[9] = biological target: T4, human FcγRIa extracellular domain with …; experiment: SPR Biacore T200, Ab captured via Fab-kappa, pH 7.4, 25C;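 further: each FcγR flowed as analyte over the captured antibodies, KD derived by 1:1 Langmuir or steady-state affinity fitting depending on the receptor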
Protocol: (§1) The interaction between the generated antibodies and human FcγRs was analyzed using Biacore T200. 50 mM Na-Phosphate, 150 mM NaCl, 0.05% Tween20 (pH 7.4) was used as the running buffer, and the assay was performed at 25° C. For the sensor chip, Series S SA (GE Healthcare) chips onto which CaptureSelect Human Fab-kappa Kinetics Biotin Conjugate (Thermo Fisher Scientific) was immobilized were used. The antibodies of interest were captured onto these chips and each FcγR diluted in the running buffer was allowed to interact with them. Chips were regenerated with 10 mM Glycine-HCl (pH 1.5) and 25 mM NaOH, and assay was performed by repeatedly capturing antibodies. The dissociation constants KD (mol/L) for FcγRs of each antibody were calculated using Biacore T200 Evaluation Software 2.0, and using the 1:1 Langmuir binding model for FcγRIa and FcγRIIIa and the steady state affinity model for FcγRIIa. For FcγRIIb, the binding amount of FcγRIIb per unit amount of antibody was calculated by correcting the binding amount of FcγRIIb obtained from the sensorgram obtained by the measurement with the amount of antibody captured onto the chip surface.

[10] = biological target: T1, human FcγRIIa H allotype extracellular …; experiment: as above
Protocol: as §1

[11] = biological target: T6, human FcγRIIIa V allotype extracellular …; experiment: as above
Protocol: as §1

[12] = biological target: T7, human FcγRIIIa F allotype extracellular domain with C-terminal His-tag (human, UniProt P08637 17-208); experiment: as above
T7 construct: extracellular domain; also called hFcγR IIIa F
Protocol: as §1

[13] = biological target: T2, human FcγRIIa R allotype extracellular …; experiment: as above
Protocol: as §1

T4 sequence (P12314 16-292): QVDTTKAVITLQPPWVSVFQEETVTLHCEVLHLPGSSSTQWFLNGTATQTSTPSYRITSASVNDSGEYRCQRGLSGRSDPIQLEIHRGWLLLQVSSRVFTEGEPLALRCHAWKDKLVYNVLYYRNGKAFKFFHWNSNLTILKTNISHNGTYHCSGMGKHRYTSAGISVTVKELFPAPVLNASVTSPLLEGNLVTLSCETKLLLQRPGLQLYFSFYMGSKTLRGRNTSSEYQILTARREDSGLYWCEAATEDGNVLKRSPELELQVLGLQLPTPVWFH
T6 sequence (P08637 17-208 F176V): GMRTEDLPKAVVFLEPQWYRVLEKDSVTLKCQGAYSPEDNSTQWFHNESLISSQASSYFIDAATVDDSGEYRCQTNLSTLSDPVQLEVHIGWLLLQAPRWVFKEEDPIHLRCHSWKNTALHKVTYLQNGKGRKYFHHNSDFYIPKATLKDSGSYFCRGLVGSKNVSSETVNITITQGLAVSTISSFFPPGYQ
T7 sequence (P08637 17-208): as the sequence (P08637 17-208 F176V) above, with V160F counted along it

Relative value to KD between G1m and hFcγRs [1] | Relative value to KD between G1m and hFcγRs [2] | Relative value to KD between G1m and hFcRn (human FcRn [3]) | Relative value to KD between G1m and hFcγRs [4] | Relative value to KD between G1m and hFcγRs [5] | Relative binding amount [6] | Binding amount [7] | Kd (human FcRn [8]) [nM] | Kd [9] [nM] | Kd [10] [nM] | Kd [11] [nM] | Kd [12] [nM] | Kd [13] [nM] | Binder
0.7 | 12.3 | 2.8 | 705 | 8.2 | 2.1 | 0.024 | 460 | 0.062 | 87 | 1.3 | 2.6 | 180 | 04H1389-Km473/04L1615-k0MT//04H1389-Hm482/04L1615-k0MT (antibody, Heterodimerized antibody with N434A/Y436T/Q438R/S440E) heavy 1: EVQLVESGGGLVKPGGSLRLSCAASGFTFSSKTMNWVRQAPGKGLEWVSSISTQSHYIYYAESVKGRFTISRDNAKNSLYLQMNSLRAEDTAVYYCARYGKREDMLWVFDYWGQGTLVTVSSASTKGPSVFPLAPSSKSTSGGTAALGCLVKDYFPEPVTVSWNSGALTSGVHTFPAVLQSSGLYSLSSVVTVPSSSLGTQTYICNVNHKPSNTKVDKRVEPKSCDKTHTCPPCPAPEFQWGPMVFLFPPKPKDVLMISRTPEVTCVVVDVSDEEPEVKFNWYVDGVEVHNAKTKPREEQYNATYRVVSVLPVLHQDWLNGKEYKCKVSNDALPAPIEKTISKAKGQPREPQVCTLPPSREEMTKNQVSLWCLVKGFYPSDIAVEWESNGQPENNYKTTPPVLDSDGSFFLYSKLTVDKSRWQQGNVFSCSVMHEALHAHTTRKELSLSP heavy 2: EVQLVESGGGLVKPGGSLRLSCAASGFTFSSKTMNWVRQAPGKGLEWVSSISTQSHYIYYAESVKGRFTISRDNAKNSLYLQMNSLRAEDTAVYYCARYGKREDMLWVFDYWGQGTLVTVSSASTKGPSVFPLAPSSKSTSGGTAALGCLVKDYFPEPVTVSWNSGALTSGVHTFPAVLQSSGLYSLSSVVTVPSSSLGTQTYICNVNHKPSNTKVDKRVEPKSCDKTHTCPPCPAPELLAGPSVFLFPPKPKDVLMISRTPEVTCVVVDVSHEEPEVKFNWYVDGVEVHNAKTKPREEQYNATYRVVSVLPVLHQDWLNGKEYKCKVSNDALPKPDEETISKAKGQPREPQVYTLPPSRCEMTKNQVSLSCAVKGFYPSDIAVEWESNGQPENNYKTTPPVLDSDGSFFLVSKLTVDKSRWQQGNVFSCSVMHEALHAHTTRKELSLSP light: DIVMTQSPLSLPVTPGEPASISCQGPSTGVGDYNYVHWYQQKPGQAPRLLIYFTSKKPSGVPDRFSGSGSGTDFTLKISRVEAEDVGVYYCQTYAAPLGPMFGQGTKLEIKRTVAAPSVFIFPPSDEQLKSGTASVVCLLNNFYPREAKVQWKVDNALQSGNSQESVTEQDSKDSTYSLSSTLTLSKADYEKHKVYACEVTHQGLSSPVTKSFNRGEC
1.8 | 5.7 | 0.7 | 1620 | 5.8 | 2.1 | 0.024 | 1700 | 0.025 | 190 | 0.56 | 1.2 | 260 | 04H1389-Km461/04L1615-k0MT//04H1389-Hm443/04L1615-k0MT (antibody, human IgG1, kappa, Heterodimerized antibody) heavy 1: EVQLVESGGGLVKPGGSLRLSCAASGFTFSSKTMNWVRQAPGKGLEWVSSISTQSHYIYYAESVKGRFTISRDNAKNSLYLQMNSLRAEDTAVYYCARYGKREDMLWVFDYWGQGTLVTVSSASTKGPSVFPLAPSSKSTSGGTAALGCLVKDYFPEPVTVSWNSGALTSGVHTFPAVLQSSGLYSLSSVVTVPSSSLGTQTYICNVNHKPSNTKVDKRVEPKSCDKTHTCPPCPAPEFQWGPMVFLFPPKPKDVLMISRTPEVTCVVVDVSDEEPEVKFNWYVDGVEVHNAKTKPREEQYNATYRVVSVLPVLHQDWLNGKEYKCKVSNDALPAPEEKTISKAKGQPREPQVCTLPPSREEMTKNQVSLWCLVKGFYPSDIAVEWESNGQPENNYKTTPPVLDSDGSFFLYSKLTVDKSRWQQGNVFSCSVMHEALHNHYTQKSLSLSP heavy 2: EVQLVESGGGLVKPGGSLRLSCAASGFTFSSKTMNWVRQAPGKGLEWVSSISTQSHYIYYAESVKGRFTISRDNAKNSLYLQMNSLRAEDTAVYYCARYGKREDMLWVFDYWGQGTLVTVSSASTKGPSVFPLAPSSKSTSGGTAALGCLVKDYFPEPVTVSWNSGALTSGVHTFPAVLQSSGLYSLSSVVTVPSSSLGTQTYICNVNHKPSNTKVDKRVEPKSCDKTHTCPPCPAPELLAGPSVFLFPPKPKDVLMISRTPEVTCVVVDVSHEEPEVKFNWYVDGVEVHNAKTKPREEQYNATYRVVSVLPVLHQDWLNGKEYKCKVSNDALPAPEEETISKAKGQPREPQVYTLPPSRCEMTKNQVSLSCAVKGFYPSDIAVEWESNGQPENNYKTTPPVLDSDGSFFLVSKLTVDKSRWQQGNVFSCSVMHEALHNHYTQKSLSLSP light: DIVMTQSPLSLPVTPGEPASISCQGPSTGVGDYNYVHWYQQKPGQAPRLLIYFTSKKPSGVPDRFSGSGSGTDFTLKISRVEAEDVGVYYCQTYAAPLGPMFGQGTKLEIKRTVAAPSVFIFPPSDEQLKSGTASVVCLLNNFYPREAKVQWKVDNALQSGNSQESVTEQDSKDSTYSLSSTLTLSKADYEKHKVYACEVTHQGLSSPVTKSFNRGEC
0.9 | 14.4 | 0.8 | 811 | 9.5 | 2.6 | 0.029 | 1700 | 0.048 | 74 | 1.1 | 2.2 | 160 | 04H1389-Km462/04L1615-k0MT//04H1389-Hm445/04L1615-k0MT (antibody, human IgG1, kappa, Heterodimerized antibody) heavy 1: EVQLVESGGGLVKPGGSLRLSCAASGFTFSSKTMNWVRQAPGKGLEWVSSISTQSHYIYYAESVKGRFTISRDNAKNSLYLQMNSLRAEDTAVYYCARYGKREDMLWVFDYWGQGTLVTVSSASTKGPSVFPLAPSSKSTSGGTAALGCLVKDYFPEPVTVSWNSGALTSGVHTFPAVLQSSGLYSLSSVVTVPSSSLGTQTYICNVNHKPSNTKVDKRVEPKSCDKTHTCPPCPAPEFQWGPMVFLFPPKPKDVLMISRTPEVTCVVVDVSDEEPEVKFNWYVDGVEVHNAKTKPREEQYNATYRVVSVLPVLHQDWLNGKEYKCKVSNDALPAPIEKTISKAKGQPREPQVCTLPPSREEMTKNQVSLWCLVKGFYPSDIAVEWESNGQPENNYKTTPPVLDSDGSFFLYSKLTVDKSRWQQGNVFSCSVMHEALHNHYTQKSLSLSP heavy 2: EVQLVESGGGLVKPGGSLRLSCAASGFTFSSKTMNWVRQAPGKGLEWVSSISTQSHYIYYAESVKGRFTISRDNAKNSLYLQMNSLRAEDTAVYYCARYGKREDMLWVFDYWGQGTLVTVSSASTKGPSVFPLAPSSKSTSGGTAALGCLVKDYFPEPVTVSWNSGALTSGVHTFPAVLQSSGLYSLSSVVTVPSSSLGTQTYICNVNHKPSNTKVDKRVEPKSCDKTHTCPPCPAPELLAGPSVFLFPPKPKDVLMISRTPEVTCVVVDVSHEEPEVKFNWYVDGVEVHNAKTKPREEQYNATYRVVSVLPVLHQDWLNGKEYKCKVSNDALPKPDEETISKAKGQPREPQVYTLPPSRCEMTKNQVSLSCAVKGFYPSDIAVEWESNGQPENNYKTTPPVLDSDGSFFLVSKLTVDKSRWQQGNVFSCSVMHEALHNHYTQKSLSLSP light: DIVMTQSPLSLPVTPGEPASISCQGPSTGVGDYNYVHWYQQKPGQAPRLLIYFTSKKPSGVPDRFSGSGSGTDFTLKISRVEAEDVGVYYCQTYAAPLGPMFGQGTKLEIKRTVAAPSVFIFPPSDEQLKSGTASVVCLLNNFYPREAKVQWKVDNALQSGNSQESVTEQDSKDSTYSLSSTLTLSKADYEKHKVYACEVTHQGLSSPVTKSFNRGEC
